Experimental data reported in publication PMC4121545.

Test system: Lac-mCherry (lac repressor-mCherry fusion, dimeric) (Escherichia coli)
Assay: in vitro transcription repression (indirect), global MWC fit
Details: no effector, R conformer (KRO); 20 mM Mg2+; 2 mM spermidine; 20 mM Tris-HCl pH 7.9, 20 mM MgCl2, 1 mM DTT, 2 mM spermidine-HCl, NTPs (0.5 mM GTP/ATP/UTP, 0.25 mM CTP), 37 C, 30 min

## O1 operator reporter, linearized 450 bp
  Ka: 0.42 nM⁻¹
